The values below are quoted from earlier work in article PMC3491057, “Proliferating Cell Nuclear Antigen (PCNA) Interactions in Solution Studied by NMR” (PLoS ONE, 2012).

The Kd is the equilibrium constant for the complex coming apart.

The target of the data set is T1, human PCNA (Homo sapiens, UniProt P12004).
T1 construct: His6 tag with PreScission protease cleavage site (N, cleaved yes); made in house; host or cells: E. coli
Particulars: PIP-box fragments. From the text: The CDK inhibitor p21 mediates the cellular response to DNA damage by arresting the cell cycle at the G1 phase, inhibiting the progression into the S phase and thus DNA replication. It is an intrinsically disordered protein with an N-terminal sequence similar to other CDK-inhibitory proteins (including p27^Kip1, p57^Kip2, and p27^XIC1) and a C-terminal region containing a PIP-box. […] The smallest p21 fragment still competing with p21^20 ... || We have characterized the thermodynamics of the p21^20 and p21^12 peptides binding to PCNA by Isothermal Titration Calorimetry (ITC) in the same buffer (PBS pH 7.0) and at the same temperature (35°C) as the NMR experiments described below (Figure 3 and Figure S2). To allow comparison with data in the literature for the p21^20 [34], ITC experiments were also carried out at 30°C.

T1 sequence (P12004 whole entry): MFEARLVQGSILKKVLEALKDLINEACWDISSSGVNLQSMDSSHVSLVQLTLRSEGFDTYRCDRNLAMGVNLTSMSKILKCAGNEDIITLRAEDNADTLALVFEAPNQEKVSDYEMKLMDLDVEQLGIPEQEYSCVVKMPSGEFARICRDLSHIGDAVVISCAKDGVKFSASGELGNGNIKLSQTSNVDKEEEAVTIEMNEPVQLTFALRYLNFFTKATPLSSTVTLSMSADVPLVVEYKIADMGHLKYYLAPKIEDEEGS

With “Fen-1^22: PIP-box fragment of Flap endonuclease 1 (SRQGSTQGRLDDFFKVTGSL)”, the equilibrium dissociation constant (Kd) is 60 µM.

For the substance “p66^22: PIP-box fragment of p66, subunit 3 of human replicative DNA polymerase-δ (POLD3) (KANRQVSITGFFQRK)”, the Kd was 1.5 µM.
